Key:
[1] = tested on: fluorescently quenched α-gliadin hexapeptide analogue QXL520-PQPQLP-K(5-FAM)-NH2
[2] = tested on: T1, immunodominant α9-gliadin peptide QLQPFPQPQLPY
T1 sequence: QLQPFPQPQLPY

Chain of glutamine-specific endoprotease EP-B2 (native) (chain, as listed by the source): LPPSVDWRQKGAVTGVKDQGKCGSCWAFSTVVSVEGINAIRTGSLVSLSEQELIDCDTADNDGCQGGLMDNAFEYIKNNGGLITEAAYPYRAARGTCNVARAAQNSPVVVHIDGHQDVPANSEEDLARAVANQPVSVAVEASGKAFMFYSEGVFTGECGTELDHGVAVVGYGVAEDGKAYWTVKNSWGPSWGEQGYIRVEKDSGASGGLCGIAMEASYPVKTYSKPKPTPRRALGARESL

Substance: glutamine-specific endoprotease EP-B2 (native)
- activity (Suc-APQ-pNA): no activity
- activity (Suc-APE-pNA): no activity
- activity (Suc-AQP-pNA): no activity
- activity (Suc-APR-pNA): no activity
- activity at pH 4 [1]: only very low levels of activity were detected

Substance: prolyl endopeptidase SC PEP (native)
- catalytic activity at pH 4 (Suc-APQ-pNA): did not exhibit any significant activity
- catalytic activity at pH 4 (Suc-APE-pNA): did not exhibit any significant activity
- catalytic activity at pH 4 (Suc-AQP-pNA): did not exhibit any significant activity
- catalytic efficiency at pH 7 (Suc-AQP-pNA): 2390 M^-1s^-1
- catalytic activity at pH 4 (Suc-APR-pNA): did not exhibit any significant activity
- degradation of the peptide after 50 minutes (LC-MS, pH 4, 37° C.) [2]: no significant degradation of the peptide was observed
- catalytic efficiency at pH 4 [1]: 1.6 M^-1s^-1
- fold lower level of activity than KumaMax [1]: roughly 350-fold lower level of activity on this substrate than KumaMax

— patent publication US20190083585
